The supplement of paper PMC9112550, “Optimization of the antimicrobial peptide Bac7 by deep mutational scanning” (BMC Biology, 2022)

Test system: Escherichia coli TOP10
Test: shrunken log2 fold change of peptide-encoding DNA abundance (4.5 h post-induction vs induction); higher = less antimicrobial activity (less host growth inhibition)
Settings: time post-induction: 4.5 h; library: site-saturation at positions 5, 18, 19, 20
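Further: peptides expressed intracellularly from a pBAD plasmid library in pooled LB shake-flask culture, induced with 0.3% L-arabinose, DNA abundance read by NGS, three biological replicates, DESeq2 with apeglm shrinkage.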

Sequence	shrunken log2 fold change
RRIRHRPPRLPRPRPRPACNPRP	-0.155
RRIRHRPPRLPRPRPRPACVPRP	0.0678
RRIRHRPPRLPRPRPRPADAPRP	-0.0349
RRIRHRPPRLPRPRPRPADCPRP	-0.395
RRIRHRPPRLPRPRPRPAFAPRP	0.278
RRIRHRPPRLPRPRPRPAFIPRP	-0.037
RRIRHRPPRLPRPRPRPAGIPRP	-0.282
RRIRHRPPRLPRPRPRPAGPPRP	0.056
RRIRHRPPRLPRPRPRPAHGPRP	0.0855
RRIRHRPPRLPRPRPRPAHIPRP	-0.0784
RRIRHRPPRLPRPRPRPAHVPRP	0.128
RRIRHRPPRLPRPRPRPAISPRP	-0.121
RRIRHRPPRLPRPRPRPAKCPRP	-0.0799
RRIRHRPPRLPRPRPRPAKEPRP	0.0203
RRIRHRPPRLPRPRPRPAKLPRP	-0.352
RRIRHRPPRLPRPRPRPAKNPRP	-0.207
RRIRHRPPRLPRPRPRPAKPPRP	0.533
RRIRHRPPRLPRPRPRPALHPRP	0.111
RRIRHRPPRLPRPRPRPALKPRP	-0.322
RRIRHRPPRLPRPRPRPALWPRP	0.701
RRIRHRPPRLPRPRPRPALYPRP	-0.033
RRIRHRPPRLPRPRPRPAMCPRP	-0.148
RRIRHRPPRLPRPRPRPAMGPRP	-0.336
RRIRHRPPRLPRPRPRPARLPRP	0.568
RRIRHRPPRLPRPRPRPARMPRP	-0.0768

Sequence	shrunken log2 fold change
RRIRHRPPRLPRPRPRPAVGPRP	0.11
RRIRHRPPRLPRPRPRPAVNPRP	-0.0508
RRIRHRPPRLPRPRPRPAVSPRP	-0.378
RRIRHRPPRLPRPRPRPAWEPRP	0.421
RRIRHRPPRLPRPRPRPAYTPRP	-0.482
RRIRHRPPRLPRPRPRPCCEPRP	-0.366
RRIRHRPPRLPRPRPRPCCQPRP	-0.243
RRIRHRPPRLPRPRPRPCFHPRP	-0.48
RRIRHRPPRLPRPRPRPCGFPRP	0.134
RRIRHRPPRLPRPRPRPCGGPRP	-0.0282
RRIRHRPPRLPRPRPRPCGIPRP	-0.0112
RRIRHRPPRLPRPRPRPCIYPRP	-0.196
RRIRHRPPRLPRPRPRPCKLPRP	-0.714
RRIRHRPPRLPRPRPRPCMDPRP	-0.0981
RRIRHRPPRLPRPRPRPCNKPRP	-0.395
RRIRHRPPRLPRPRPRPCPDPRP	0.0299
RRIRHRPPRLPRPRPRPCRAPRP	0.0188
RRIRHRPPRLPRPRPRPCSHPRP	-0.0787
RRIRHRPPRLPRPRPRPCVAPRP	0.0478
RRIRHRPPRLPRPRPRPCVMPRP	-0.239
RRIRHRPPRLPRPRPRPCYRPRP	-0.121
RRIRHRPPRLPRPRPRPDCRPRP	-0.0597
RRIRHRPPRLPRPRPRPDDNPRP	-0.0371
RRIRHRPPRLPRPRPRPDFGPRP	-0.156
RRIRHRPPRLPRPRPRPDHEPRP	-0.018

Sequence	shrunken log2 fold change
RRIRHRPPRLPRPRPRPDIAPRP	0.00497
RRIRHRPPRLPRPRPRPDIYPRP	0.027
RRIRHRPPRLPRPRPRPDLEPRP	-0.00264
RRIRHRPPRLPRPRPRPDMPPRP	0.144
RRIRHRPPRLPRPRPRPDNCPRP	-0.0245
RRIRHRPPRLPRPRPRPDPDPRP	-0.0982
RRIRHRPPRLPRPRPRPDQAPRP	0.106
RRIRHRPPRLPRPRPRPDQDPRP	-0.0366
RRIRHRPPRLPRPRPRPDQSPRP	-0.016
RRIRHRPPRLPRPRPRPDRSPRP	-0.0222
RRIRHRPPRLPRPRPRPDSTPRP	0.12
RRIRHRPPRLPRPRPRPDTKPRP	0.162
RRIRHRPPRLPRPRPRPDWAPRP	-0.0995
RRIRHRPPRLPRPRPRPDWDPRP	-0.0204
RRIRHRPPRLPRPRPRPDWLPRP	0.0441
RRIRHRPPRLPRPRPRPDWPPRP	0.114
RRIRHRPPRLPRPRPRPDWVPRP	-0.0196
RRIRHRPPRLPRPRPRPDWYPRP	-0.061
RRIRHRPPRLPRPRPRPDYLPRP	-0.998
RRIRHRPPRLPRPRPRPEAMPRP	-0.00857
RRIRHRPPRLPRPRPRPECEPRP	0.16
RRIRHRPPRLPRPRPRPECGPRP	0.322
RRIRHRPPRLPRPRPRPEDFPRP	0.0333
RRIRHRPPRLPRPRPRPEDWPRP	0.83
RRIRHRPPRLPRPRPRPEGAPRP	0.686

Sequence	shrunken log2 fold change
RRIRHRPPRLPRPRPRPEHMPRP	-0.177
RRIRHRPPRLPRPRPRPEIIPRP	-0.496
RRIRHRPPRLPRPRPRPELFPRP	0.458
RRIRHRPPRLPRPRPRPEPAPRP	1.48
RRIRHRPPRLPRPRPRPEPEPRP	0.241
RRIRHRPPRLPRPRPRPEPVPRP	0.0556
RRIRHRPPRLPRPRPRPEQRPRP	0.229
RRIRHRPPRLPRPRPRPERWPRP	0.357
RRIRHRPPRLPRPRPRPESHPRP	-0.0331
RRIRHRPPRLPRPRPRPESNPRP	-0.131
RRIRHRPPRLPRPRPRPESQPRP	-0.173
RRIRHRPPRLPRPRPRPEVFPRP	-0.0194
RRIRHRPPRLPRPRPRPEVPPRP	-0.00339
RRIRHRPPRLPRPRPRPEYCPRP	-0.201
RRIRHRPPRLPRPRPRPEYHPRP	-0.317
RRIRHRPPRLPRPRPRPEYSPRP	-0.0276
RRIRHRPPRLPRPRPRPFCRPRP	-0.108
RRIRHRPPRLPRPRPRPFCWPRP	0.252
RRIRHRPPRLPRPRPRPFDIPRP	-0.212
RRIRHRPPRLPRPRPRPFDPPRP	-0.101
RRIRHRPPRLPRPRPRPFIHPRP	-0.1
RRIRHRPPRLPRPRPRPFINPRP	-0.205
RRIRHRPPRLPRPRPRPFKKPRP	-0.00783
RRIRHRPPRLPRPRPRPFKQPRP	-0.0287
RRIRHRPPRLPRPRPRPFLAPRP	-0.336

Sequence	shrunken log2 fold change
RRIRHRPPRLPRPRPRPFLFPRP	-0.408
RRIRHRPPRLPRPRPRPFLKPRP	-0.0136
RRIRHRPPRLPRPRPRPFLPPRP	-0.671
RRIRHRPPRLPRPRPRPFMAPRP	-0.548
RRIRHRPPRLPRPRPRPFPIPRP	0.0165
RRIRHRPPRLPRPRPRPFQKPRP	0.00797
RRIRHRPPRLPRPRPRPFQNPRP	-0.195
RRIRHRPPRLPRPRPRPFSKPRP	0.0242
RRIRHRPPRLPRPRPRPFTRPRP	-0.132
RRIRHRPPRLPRPRPRPFVFPRP	-0.0736
RRIRHRPPRLPRPRPRPFVPPRP	-0.455
RRIRHRPPRLPRPRPRPFWEPRP	-0.218
RRIRHRPPRLPRPRPRPFWMPRP	-0.0444
RRIRHRPPRLPRPRPRPFWPPRP	0.131
RRIRHRPPRLPRPRPRPFYHPRP	-0.126
RRIRHRPPRLPRPRPRPGAYPRP	-0.266
RRIRHRPPRLPRPRPRPGCKPRP	0.229
RRIRHRPPRLPRPRPRPGDMPRP	-0.157
RRIRHRPPRLPRPRPRPGGGPRP	0.684
RRIRHRPPRLPRPRPRPGHAPRP	-0.0876
RRIRHRPPRLPRPRPRPGIFPRP	-0.24
RRIRHRPPRLPRPRPRPGIIPRP	-0.0698
RRIRHRPPRLPRPRPRPGKLPRP	0.169
RRIRHRPPRLPRPRPRPGKNPRP	-0.0444
RRIRHRPPRLPRPRPRPGKYPRP	-0.0822

Sequence	shrunken log2 fold change
RRIRHRPPRLPRPRPRPGLKPRP	0.182
RRIRHRPPRLPRPRPRPGMMPRP	0.00873
RRIRHRPPRLPRPRPRPGMRPRP	0.163
RRIRHRPPRLPRPRPRPGNLPRP	-0.0177
RRIRHRPPRLPRPRPRPGNTPRP	-0.319
RRIRHRPPRLPRPRPRPGPQPRP	0.0368
RRIRHRPPRLPRPRPRPGPVPRP	0.26
RRIRHRPPRLPRPRPRPGQFPRP	-0.0207
RRIRHRPPRLPRPRPRPGRFPRP	0.314
RRIRHRPPRLPRPRPRPGRTPRP	0.208
RRIRHRPPRLPRPRPRPGSFPRP	-0.176
RRIRHRPPRLPRPRPRPGTQPRP	-0.128
RRIRHRPPRLPRPRPRPGTVPRP	-0.139
RRIRHRPPRLPRPRPRPGVEPRP	0.0675
RRIRHRPPRLPRPRPRPGVGPRP	0.146
RRIRHRPPRLPRPRPRPGVQPRP	0.00489
RRIRHRPPRLPRPRPRPGYAPRP	-0.163
RRIRHRPPRLPRPRPRPHCPPRP	-0.207
RRIRHRPPRLPRPRPRPHDIPRP	0.0564
RRIRHRPPRLPRPRPRPHHDPRP	-0.166
RRIRHRPPRLPRPRPRPHHMPRP	-0.324
RRIRHRPPRLPRPRPRPHIDPRP	-0.241
RRIRHRPPRLPRPRPRPHIEPRP	0.032
RRIRHRPPRLPRPRPRPHILPRP	-0.084
RRIRHRPPRLPRPRPRPHKYPRP	-0.242
